We go through one molecule from PMC4582117, “VEGF-A/NRP1 stimulates GIPC1 and Syx complex formation to promote RhoA activation and proliferation in skin cancer cells” (Biology Open, 2015).

The test has as its target T1, HA-tagged GIPC1 (GAIP interacting protein C terminus) (UniProt O14908 1-333).
T1 construct: GIPC1, scaffold protein with a PDZ domain; The plasmid list begins with 'Human NRP1WT, HA-tagged GIPC1, ...'; it is not clear whether 'Human' also covers GIPC1; also called GIPC1 (HA); source: HEK293T, transfected (pcDNA 3.1 TOPO, FuGENE6), in lysate
T1 sequence (looked up): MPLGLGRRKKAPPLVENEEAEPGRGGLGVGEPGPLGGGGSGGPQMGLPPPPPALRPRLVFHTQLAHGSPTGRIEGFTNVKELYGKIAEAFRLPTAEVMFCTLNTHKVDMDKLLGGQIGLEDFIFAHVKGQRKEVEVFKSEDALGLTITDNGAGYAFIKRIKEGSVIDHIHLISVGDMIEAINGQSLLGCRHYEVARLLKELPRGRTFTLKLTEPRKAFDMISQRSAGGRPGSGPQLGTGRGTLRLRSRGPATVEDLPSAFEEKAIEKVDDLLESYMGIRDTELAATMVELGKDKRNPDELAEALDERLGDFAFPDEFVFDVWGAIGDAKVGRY
Nature of the test: co-IP; Scrambled or Targeted peptide mixed with lysate of HEK293T overexpressing HA-GIPC1, 1 h rotation at 4°C; co-immunoprecipitated with GIPC1; blot with anti-GFP. Particulars: one partner purified.

B1: TAT-EGFP-peptide 1 (STLTASEV), the Targeted peptide (peptide)
chain: GSTLTASEV
notes: Detected with anti-GFP; also called Target peptide; not shown: EGFP, N-terminal, kept
Take B1: the “fold binding over the Scrambled peptide” value was 3 fold.
